Measured values: patent publication US11351270B2, “Junctophilin-2 fragments and uses therefor” (University of Iowa Research Foundation, priority 2016, dated 2022)

Test system: RyR2 and Cav1.2
Test: Coimmunoprecipitation with E-C coupling channels
Format: binding, mouse
Details: anti-HA immunoprecipitation
Source text: FIGS. 5A-H. JP2 truncations are nonfunctional in regulating Ca^2+ transients. A) An antibody against the HA tag was used to reveal the localization of adenoviral expression of tagged full-length JP2 and truncations, as indicated, in adult wild-type cardiomyocytes. All the three version of JP2 can be localized in the striated pattern. B) Full-length JP2 and JP2(1-565) forms complexes with RyR2 and Cav1.2 In vivo. An antibody against HA was used for immunoprecipitation […]. The RyR2 and Cav1.2 that were pulled down were detected by Western blot analysis. […] IB, immunoblot. C) Adenovirus-mediated expression of full-length JP2, FLAG-JP2(1-565)-HA, and JP2(566-end)-HA in JP2-KD) cardiomyocytes. D) Representative steady-state Ca^2+ transients under 1-Hz field stimulation. The fluorescence intensity (F) of Ca^2+ imaging was normalized to the baseline (FO). The red lines overlapping on Ca^2+ imaging show the profile of the moment of Ca^2+ transient firing on the scanning line in a point-by-point way. A straighter line means better synchronization of the Ca^2+ transients. Note that expression of full-length JP2, but not JP2 truncations, improves the amplitude and synchronization of Ca^2+ transients. E-G) Summary of Ca^2+ transient amplitude, index of desynchronization (mean absolute deviation of firing time), and duration of 50% decay (T5) (n=68, 70, 70, and 52 for Ad-Empty, Ad-JP2, […], and Ad-JP2(566-end), respectively). Only full-length JP2 Improves the amplitude, synchronization, and decay of Ca^2+ transients. H) Summary of SR Ca^2+ content, which was assessed by caffeine-induced SR Ca^2+ release (n=17, 17, 17, and 12 for Ad-Empty, Ad-JP2, Ad-JP2(1-565), and Ad-JP2(566-end), respectively). **, p<0.01 versus indicated groups; N.S., not significant.
Cleavage at the primary calpain proteolysis site (Arg-565/Thr-566) splits apart the C-terminal SR-binding TM domain and N-terminal plasma membrane-binding MORN domains of JP2. […]

B1: JP2NT: shorter form of Junctophilin-2 including the first 565 amino acids of N-terminus of JP2 (protein, UniProt Q9BR39 1-565, looked up, fragment)
chain: MSGGRFDFDDGGAYCGGWEGGKAHGHGLCTGPKGQGEYSGSWNFGFEVAGVYTWPSGNTFEGYWSQGKRHGLGIETKGRWLYKGEWTHGFKGRYGIRQSSSSGAKYEGTWNNGLQDGYGTETYADGGTYQGQFTNGMRHGYGVRQSVPYGMAVVVRSPLRTSLSSLRSEHSNGTVAPDSPASPASDGPALPSPAIPRGGFALSLLANAEAAARAPKGGGLFQRGALLGKLRRAESRTSVGSQRSRVSFLKSDLSSGASDAASTASLGEAAEGADEAAPFEADIDATTTETYMGEWKNDKRSGFGVSERSSGLRYEGEWLDNLRHGYGCTTLPDGHREEGKYRHNVLVKDTKRRMLQLKSNKVRQKVEHSVEGAQRAAAIARQKAEIAASRTSHAKAKAEAAEQAALAANQESNIARTLARELAPDFYQPGPEYQKRRLLQEILENSESLLEPPDRGAGAAGLPQPPRESPQLHERETPRPEGGSPSPAGTPPQPKRPRPGVSKDGLLSPGAWNGEPSGEGSRSVTPSEGAGRRSPARPATERMAIEALQAPPAPSREPEVALYQG
modifications: GST or adenoviral forms
notes: shorter form of Junctophilin-2 including the first 565 amino acids of N-terminus of JP2
interaction with RyR2 and Cav1.2: interact
